Reference: the supplement of paper PMC9112550, “Optimization of the antimicrobial peptide Bac7 by deep mutational scanning” (BMC Biology, 2022)

System: Escherichia coli TOP10
Assay: shrunken log2 fold change of peptide-encoding DNA abundance (4.5 h post-induction vs induction); higher = less antimicrobial activity (less host growth inhibition)
Conditions: time post-induction: 4.5 h; library: site-saturation at positions 5, 18, 19, 20
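Further: peptides expressed intracellularly from a pBAD plasmid library in pooled LB shake-flask culture, induced with 0.3% L-arabinose, DNA abundance read by NGS, three biological replicates, DESeq2 with apeglm shrinkage.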

Row | Sequence | shrunken log2 fold change
1 | RRIRKRPPRLPRPRPRPCWVPRP | 0.259
2 | RRIRKRPPRLPRPRPRPCWYPRP | -0.139
3 | RRIRKRPPRLPRPRPRPDAGPRP | -0.034
4 | RRIRKRPPRLPRPRPRPDAQPRP | 1.59
5 | RRIRKRPPRLPRPRPRPDAVPRP | 0.698
6 | RRIRKRPPRLPRPRPRPDCKPRP | -0.0333
7 | RRIRKRPPRLPRPRPRPDEFPRP | 1.24
8 | RRIRKRPPRLPRPRPRPDEIPRP | 0.0203
9 | RRIRKRPPRLPRPRPRPDERPRP | -0.00101
10 | RRIRKRPPRLPRPRPRPDFDPRP | -0.183
11 | RRIRKRPPRLPRPRPRPDFGPRP | 0.052
12 | RRIRKRPPRLPRPRPRPDGGPRP | 0.157
13 | RRIRKRPPRLPRPRPRPDGKPRP | 0.0268
14 | RRIRKRPPRLPRPRPRPDGRPRP | 0.0261
15 | RRIRKRPPRLPRPRPRPDGTPRP | 0.293
16 | RRIRKRPPRLPRPRPRPDIFPRP | -0.178
17 | RRIRKRPPRLPRPRPRPDLGPRP | 0.0986
18 | RRIRKRPPRLPRPRPRPDLMPRP | 0.0729
19 | RRIRKRPPRLPRPRPRPDMEPRP | 0.092
20 | RRIRKRPPRLPRPRPRPDPGPRP | 0.335
21 | RRIRKRPPRLPRPRPRPDPNPRP | 0.0802
22 | RRIRKRPPRLPRPRPRPDPRPRP | 1.19
23 | RRIRKRPPRLPRPRPRPDSGPRP | -0.00213
24 | RRIRKRPPRLPRPRPRPDTPPRP | 0.546
25 | RRIRKRPPRLPRPRPRPDWYPRP | -0.149

Row | Sequence | shrunken log2 fold change
26 | RRIRKRPPRLPRPRPRPDYVPRP | -0.0105
27 | RRIRKRPPRLPRPRPRPECWPRP | 0.744
28 | RRIRKRPPRLPRPRPRPEEIPRP | 0.00253
29 | RRIRKRPPRLPRPRPRPEFKPRP | 0.165
30 | RRIRKRPPRLPRPRPRPEGHPRP | 0.0594
31 | RRIRKRPPRLPRPRPRPEHAPRP | 1.12
32 | RRIRKRPPRLPRPRPRPEHQPRP | 0.163
33 | RRIRKRPPRLPRPRPRPEKNPRP | 0.987
34 | RRIRKRPPRLPRPRPRPELAPRP | 2.83
35 | RRIRKRPPRLPRPRPRPENYPRP | -0.0275
36 | RRIRKRPPRLPRPRPRPEPRPRP | 0.991
37 | RRIRKRPPRLPRPRPRPEQVPRP | 0.158
38 | RRIRKRPPRLPRPRPRPERVPRP | 0.281
39 | RRIRKRPPRLPRPRPRPESFPRP | 0.0651
40 | RRIRKRPPRLPRPRPRPETWPRP | 0.0991
41 | RRIRKRPPRLPRPRPRPEVDPRP | 3.04
42 | RRIRKRPPRLPRPRPRPEVHPRP | 0.013
43 | RRIRKRPPRLPRPRPRPEWFPRP | 0.219
44 | RRIRKRPPRLPRPRPRPEYCPRP | 0.109
45 | RRIRKRPPRLPRPRPRPEYFPRP | 0.084
46 | RRIRKRPPRLPRPRPRPEYSPRP | 0.0499
47 | RRIRKRPPRLPRPRPRPFFHPRP | 0.203
48 | RRIRKRPPRLPRPRPRPFFLPRP | 0.225
49 | RRIRKRPPRLPRPRPRPFFYPRP | 0.0957
50 | RRIRKRPPRLPRPRPRPFGEPRP | 0.365

Row | Sequence | shrunken log2 fold change
51 | RRIRKRPPRLPRPRPRPFGGPRP | -0.043
52 | RRIRKRPPRLPRPRPRPFKDPRP | -0.0776
53 | RRIRKRPPRLPRPRPRPFLAPRP | 0.169
54 | RRIRKRPPRLPRPRPRPFLHPRP | -0.0903
55 | RRIRKRPPRLPRPRPRPFMHPRP | 0.0291
56 | RRIRKRPPRLPRPRPRPFNAPRP | 0.0749
57 | RRIRKRPPRLPRPRPRPFNVPRP | -0.172
58 | RRIRKRPPRLPRPRPRPFPFPRP | -0.255
59 | RRIRKRPPRLPRPRPRPFPYPRP | -0.135
60 | RRIRKRPPRLPRPRPRPFQFPRP | -0.018
61 | RRIRKRPPRLPRPRPRPFTDPRP | -0.091
62 | RRIRKRPPRLPRPRPRPFTEPRP | 0.0246
63 | RRIRKRPPRLPRPRPRPFTNPRP | -0.0844
64 | RRIRKRPPRLPRPRPRPFVRPRP | 0.00981
65 | RRIRKRPPRLPRPRPRPFWFPRP | 0.247
66 | RRIRKRPPRLPRPRPRPFWVPRP | -0.175
67 | RRIRKRPPRLPRPRPRPFYYPRP | -0.587
68 | RRIRKRPPRLPRPRPRPGCGPRP | 0.761
69 | RRIRKRPPRLPRPRPRPGCKPRP | 0.189
70 | RRIRKRPPRLPRPRPRPGCRPRP | 0.654
71 | RRIRKRPPRLPRPRPRPGDTPRP | 0.0879
72 | RRIRKRPPRLPRPRPRPGETPRP | 0.476
73 | RRIRKRPPRLPRPRPRPGFFPRP | 0.786
74 | RRIRKRPPRLPRPRPRPGFKPRP | -0.0198
75 | RRIRKRPPRLPRPRPRPGFTPRP | 0.0173

Row | Sequence | shrunken log2 fold change
76 | RRIRKRPPRLPRPRPRPGFWPRP | 0.537
77 | RRIRKRPPRLPRPRPRPGHAPRP | 0.667
78 | RRIRKRPPRLPRPRPRPGIQPRP | 0.0822
79 | RRIRKRPPRLPRPRPRPGLIPRP | 0.13
80 | RRIRKRPPRLPRPRPRPGLNPRP | 0.0896
81 | RRIRKRPPRLPRPRPRPGLVPRP | 0.783
82 | RRIRKRPPRLPRPRPRPGMVPRP | 0.8
83 | RRIRKRPPRLPRPRPRPGNMPRP | 0.257
84 | RRIRKRPPRLPRPRPRPGQGPRP | 0.205
85 | RRIRKRPPRLPRPRPRPGRRPRP | 0.438
86 | RRIRKRPPRLPRPRPRPGTDPRP | -0.165
87 | RRIRKRPPRLPRPRPRPGTGPRP | 0.1
88 | RRIRKRPPRLPRPRPRPGTNPRP | 0.124
89 | RRIRKRPPRLPRPRPRPGTPPRP | 0.824
90 | RRIRKRPPRLPRPRPRPGVIPRP | 0.251
91 | RRIRKRPPRLPRPRPRPGVVPRP | 0.755
92 | RRIRKRPPRLPRPRPRPGYCPRP | -0.275
93 | RRIRKRPPRLPRPRPRPGYFPRP | -0.0741
94 | RRIRKRPPRLPRPRPRPGYIPRP | 0.0313
95 | RRIRKRPPRLPRPRPRPHAHPRP | 0.428
96 | RRIRKRPPRLPRPRPRPHAYPRP | 0.0163
97 | RRIRKRPPRLPRPRPRPHCCPRP | -0.0219
98 | RRIRKRPPRLPRPRPRPHCKPRP | -0.397
99 | RRIRKRPPRLPRPRPRPHCQPRP | 0.101
100 | RRIRKRPPRLPRPRPRPHDDPRP | 0.171

Row | Sequence | shrunken log2 fold change
101 | RRIRKRPPRLPRPRPRPHDSPRP | -0.0516
102 | RRIRKRPPRLPRPRPRPHDWPRP | 0.31
103 | RRIRKRPPRLPRPRPRPHEIPRP | 0.704
104 | RRIRKRPPRLPRPRPRPHEWPRP | 0.3
105 | RRIRKRPPRLPRPRPRPHFDPRP | 0.275
106 | RRIRKRPPRLPRPRPRPHGCPRP | 0.352
107 | RRIRKRPPRLPRPRPRPHGWPRP | 0.865
108 | RRIRKRPPRLPRPRPRPHIAPRP | -0.415
109 | RRIRKRPPRLPRPRPRPHIGPRP | -0.0664
110 | RRIRKRPPRLPRPRPRPHIIPRP | 0.0119
111 | RRIRKRPPRLPRPRPRPHIRPRP | 0.0177
112 | RRIRKRPPRLPRPRPRPHKCPRP | 2.12
113 | RRIRKRPPRLPRPRPRPHLNPRP | 0.14
114 | RRIRKRPPRLPRPRPRPHLVPRP | 0.0297
115 | RRIRKRPPRLPRPRPRPHLWPRP | 0.709
116 | RRIRKRPPRLPRPRPRPHNAPRP | 0.0979
117 | RRIRKRPPRLPRPRPRPHNCPRP | 0.0806
118 | RRIRKRPPRLPRPRPRPHNRPRP | -0.137
119 | RRIRKRPPRLPRPRPRPHNWPRP | 0.172
120 | RRIRKRPPRLPRPRPRPHPTPRP | 0.431
121 | RRIRKRPPRLPRPRPRPHQYPRP | -0.293
122 | RRIRKRPPRLPRPRPRPHRRPRP | 3.99
123 | RRIRKRPPRLPRPRPRPHSHPRP | 0.179
124 | RRIRKRPPRLPRPRPRPHTAPRP | 0.239
125 | RRIRKRPPRLPRPRPRPHWIPRP | -0.0313

Row | Sequence | shrunken log2 fold change
126 | RRIRKRPPRLPRPRPRPHWVPRP | -0.0562
127 | RRIRKRPPRLPRPRPRPHYHPRP | -0.145
128 | RRIRKRPPRLPRPRPRPICCPRP | 0.583
129 | RRIRKRPPRLPRPRPRPIELPRP | -0.025
130 | RRIRKRPPRLPRPRPRPIFMPRP | 0.0293
131 | RRIRKRPPRLPRPRPRPIGFPRP | -0.00176
132 | RRIRKRPPRLPRPRPRPIGIPRP | -0.01
133 | RRIRKRPPRLPRPRPRPIHGPRP | -0.122
134 | RRIRKRPPRLPRPRPRPIHIPRP | -0.39
135 | RRIRKRPPRLPRPRPRPIHSPRP | -0.00784
136 | RRIRKRPPRLPRPRPRPIHWPRP | 0.137
137 | RRIRKRPPRLPRPRPRPIIGPRP | 0.00654
138 | RRIRKRPPRLPRPRPRPIITPRP | 0.0225
139 | RRIRKRPPRLPRPRPRPIKPPRP | 0.0885
140 | RRIRKRPPRLPRPRPRPINDPRP | -0.48
141 | RRIRKRPPRLPRPRPRPIRKPRP | 0.092
142 | RRIRKRPPRLPRPRPRPISVPRP | -0.056
143 | RRIRKRPPRLPRPRPRPISYPRP | -0.0078
144 | RRIRKRPPRLPRPRPRPITAPRP | 0.235
145 | RRIRKRPPRLPRPRPRPIYEPRP | -0.0432
146 | RRIRKRPPRLPRPRPRPIYMPRP | -0.0645
147 | RRIRKRPPRLPRPRPRPKAIPRP | 0.0275
148 | RRIRKRPPRLPRPRPRPKALPRP | 1.8
149 | RRIRKRPPRLPRPRPRPKCTPRP | 0.0297
150 | RRIRKRPPRLPRPRPRPKCYPRP | -0.0561
